From article PMC12637205, “A natural allele of the transcription factor gene TaMYB-D7b is a genetic signature for phosphorus deficiency in wheat”

Biological target: TaMYB-D7b (2174 allele, Gly-50) (Triticum aestivum cv. 2174, UniProt A0A410P7J2)
Assay: EMSA; EMSA: 100 fmol biotin probe, 1 ug protein, 20 uL, 1x binding buffer, 2.5% glycerol, 5 mM MgCl2, 1 ug poly(dI-dC), room temperature 30 min; pH and salt not given
Conditions: protein: recombinant; tags: His (pET32a vector); label: 5'-biotin

TaMYB-D7b (2174 allele, Gly-50), sequence (A0A410P7J2 entry or part of it): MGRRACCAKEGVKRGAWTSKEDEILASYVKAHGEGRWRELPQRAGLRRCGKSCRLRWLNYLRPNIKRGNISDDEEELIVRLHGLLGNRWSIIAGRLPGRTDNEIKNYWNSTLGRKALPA

B1: TaCHSL-A2 promoter probe (27 bp) (dsDNA)
DNA 1: TGCAAAGAAAACCAACCAACACTTACC
DNA 2: GGTAAGTGTTGGTTGGTTTTCTTTGCA
B1: binds.
